The record followed here is publication PMC8485043.

“And” between values parts separate entries of the source, which are not always exact repeats. Equal values may be shown once.

The assay concerns the target VDAC-ΔC, C-terminally truncated variant of Neurospora crassa VDAC lacking residues 269-283 (β19) (Neurospora crassa). The experiment in a line: SEC-MALS; protein folded in DM, no sterol; UV, MALS and differential refractive index detectors, protein-conjugate analysis in ASTRA. (Size exclusion chromatography separates by hydrodynamic size, large species first.)

In the case of “VDAC-ΔC, C-terminally truncated variant of Neurospora crassa VDAC lacking residues 269-283 (β19) (domain or fragment)”, the stoichiometry N – broadly, a count of units in the complex or per binding partner – is 2 and 4.
